Columns and labels:
[1] = target: T1, HER2 (Homo sapiens, UniProt P04626); test: Western blot of P-HER2 in lung cancer cells treated with sPLA2-IIA; type: cell-based; parameters: endogenous in cells; host or cells: A549 lung cancer cells; conditions: A549 and H1975 cells (FIG. 22A: A549), 0-0.5 μg/mL, 2 H, 10% FBS
Procedure: (§1) A549 and H1975 lung cancer cells were starved in 1% stripped medium for 24 H. The cells were then treated with recombinant human sPLA2-IIA (0.5 μg/mL) with various concentrations (0, 0.125, 0.25, or 0.5 μg/mL) of sPLA2-IIA for 2 H in medium containing 10% fetal bovine serum (hereinafter “FBS”). Cell extracts were prepared and subjected to western blot analysis for HER2, P-HER2, HER3, and P-HER3. Western blot analysis was conducted as previously described.

[2] = target: T2, HER3 (Homo sapiens, UniProt P21860); test: Western blot of P-HER3 in lung cancer cells treated with sPLA2-IIA; type: cell-based; conditions: A549 and H1975 cells (FIG. 22B: H1975), 0-0.5 μg/mL, 2 H, 10% FBS
T2 construct: endogenous in cells; host or cells: H1975 lung cancer cells
T2 sequence (P21860 20-1342): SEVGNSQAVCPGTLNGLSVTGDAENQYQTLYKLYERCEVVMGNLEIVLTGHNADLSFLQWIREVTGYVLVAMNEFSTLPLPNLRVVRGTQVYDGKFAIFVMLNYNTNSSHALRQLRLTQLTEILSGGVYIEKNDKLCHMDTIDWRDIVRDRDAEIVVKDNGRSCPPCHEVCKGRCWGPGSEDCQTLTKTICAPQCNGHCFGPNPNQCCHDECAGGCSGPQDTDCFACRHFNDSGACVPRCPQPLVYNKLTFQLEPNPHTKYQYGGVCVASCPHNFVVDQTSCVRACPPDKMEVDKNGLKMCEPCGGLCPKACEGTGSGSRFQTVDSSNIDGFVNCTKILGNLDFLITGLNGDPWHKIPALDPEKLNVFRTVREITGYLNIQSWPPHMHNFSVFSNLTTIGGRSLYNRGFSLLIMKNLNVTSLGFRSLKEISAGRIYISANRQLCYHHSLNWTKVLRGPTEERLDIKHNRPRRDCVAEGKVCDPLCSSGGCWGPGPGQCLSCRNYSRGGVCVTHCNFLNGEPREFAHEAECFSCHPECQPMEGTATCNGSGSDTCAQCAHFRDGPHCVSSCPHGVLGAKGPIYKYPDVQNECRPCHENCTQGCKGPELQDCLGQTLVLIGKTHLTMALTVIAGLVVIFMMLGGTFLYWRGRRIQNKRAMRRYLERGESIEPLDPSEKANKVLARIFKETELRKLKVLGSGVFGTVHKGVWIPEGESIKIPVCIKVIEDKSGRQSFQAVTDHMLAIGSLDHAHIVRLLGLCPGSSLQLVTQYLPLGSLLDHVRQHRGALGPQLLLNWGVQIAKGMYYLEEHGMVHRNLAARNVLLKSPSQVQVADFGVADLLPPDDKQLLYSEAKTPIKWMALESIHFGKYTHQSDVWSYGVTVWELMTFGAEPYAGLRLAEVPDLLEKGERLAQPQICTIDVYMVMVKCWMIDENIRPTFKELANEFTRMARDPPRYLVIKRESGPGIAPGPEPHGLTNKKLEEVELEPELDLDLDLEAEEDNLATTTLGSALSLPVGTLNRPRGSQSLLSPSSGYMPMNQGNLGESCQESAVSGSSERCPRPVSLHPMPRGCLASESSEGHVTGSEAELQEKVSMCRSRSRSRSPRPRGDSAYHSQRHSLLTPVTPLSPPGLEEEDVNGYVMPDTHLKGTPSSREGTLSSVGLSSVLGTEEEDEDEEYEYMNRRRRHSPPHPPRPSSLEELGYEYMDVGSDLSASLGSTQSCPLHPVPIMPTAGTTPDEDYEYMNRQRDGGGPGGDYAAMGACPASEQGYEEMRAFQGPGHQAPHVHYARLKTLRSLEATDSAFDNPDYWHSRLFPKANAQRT
Procedure: as §1

[3] = target: T1, HER2; test: Western blot of P-HER2 in LNCaP-AI prostate cancer cells treated with sPLA2-IIA; type: cell-based; parameters: endogenous in cells; conditions: 0.5 μg/mL for 0-180 min or 0-0.5 μg/mL for 2 H, FIG. 23
Procedure: Additionally, LNCaP-AI prostate cancer cells were starved in 1% stripped medium for 24 H. The cells were then treated with recombinant human sPLA2-IIA (0.5 μg/mL) for 30 to 180 minutes (0, 30, 60, 120, or 180 min) or with various concentrations of sPLA2-IIA (0, 0.125, 0.25, or 0.5 μg/mL) for 2 H in medium containing 10% FBS. Cell extracts were prepared and subjected to western blot analysis for P-HER2 and HER2. Western blot analysis was conducted as previously described.

[4] = tested on: LNCaP-AI cells; test: MTT growth assay in LNCaP-AI cells; type: cell-based, human; conditions: 10% stripped medium, about 4 days, FIG. 11
Procedure: The role of sPLA2-IIA in the growth of prostate cancer cells was studied by MTT assay. Specifically, LNCaP-AI cells were cultured in 10% stripped medium in the presence of EGF (ng/mL) or sPLA2-IIA (ng/mL) for about 4 days, followed by performance of an MTT assay. The role of sPLA2-IIA on prostate cancer cell growth was also studied by blocking the activity of sPLA2-IIA in LNCaP-AI cells. The activity of sPLA2-IIA was blocked in LNCaP-AI cells by administering the peptide inhibitor cFLYSYR (μM) or c(NapA)R (μM) for about 4 days, followed by performance of an MTT assay.

phosphorylation of HER2 [1]: induced phosphorylation | phosphorylation of HER3 [2]: induced phosphorylation | phosphorylation of HER2 [3]: induced phosphorylation
B1: recombinant human sPLA2-IIA: recombinant human secretory phospholipase A2-IIA (protein, UniProt P14555 21-144, looked up)
Phospholipase A2, membrane …: NLVNFHRMIKLTTGKEAALSYGFYGCHCGVGGRGSPKDATDRCCVTHDCCYKRLEKRGCGTKFLSYKFSNSGSRITCAKQDSCRSQLCECDKAAATCFARNKTTYNKKYQYYSNKHCRGSTPRC
prostate cancer cell growth (MTT) [4]: stimulates prostate cancer cell growth

From patent publication US20130095503A1, “SERUM SPLA2-IIA AS DIAGNOSIS MARKER FOR PROSTATE AND LUNG CANCER” (UNIVERSITY OF CINCINNATI, priority 2010, published 2013)
